Test results published in paper PMC8693978.

Tests used:
[1] = target: EGFP-ARHGAP4 Rho-GAP deletion mutant (human); assay: co-IP
[2] = target: EGFP-ARHGAP4 SH3 deletion mutant (human); assay: co-IP

B1: SEPT9 (natural protein)
chain: MKKSYSGGTRTSSGRLRRLGDSSGPALKRSFEVEEVETPNSTPPRRVQTPLLRATVASSTQKFQDLGVKNSEPSARHVDSLSQRSPKASLRRVELSGPKAAEPVSRRTELSIDISSKQVENAGAIGPSRFGLKRAEVLGHKTPEPAPRRTEITIVKPQESAHRRMEPPASKVPEVPTAPATDAAPKRVEIQMPKPAEAPTAPSPAQTLENSEPAPVSQLQSRLEPKPQPPVAEATPRSQEATEAAPSCVGDMADTPRDAGLKQAPASRNEKAPVDFGYVGIDSILEQMRRKAMKQGFEFNIMVVGQSGLGKSTLINTLFKSKISRKSVQPTSEERIPKTIEIKSITHDIEEKGVRMKLTVIDTPGFGDHINNENCWQPIMKFINDQYEKYLQEEVNINRKKRIPDTRVHCCLYFIPATGHSLRPLDIEFMKRLSKVVNIVPVIAKADTLTLEERVHFKQRITADLLSNGIDVYPQKEFDEDSEDRLVNEKFREMIPFAVVGSDHEYQVNGKRILGRKTKWGTIEVENTTHCEFAYLRDLLIRTHMQNIKDITSSIHFEAYRVKRLNEGSSAMANGMEEKEPEAPEM
- percent of the co-precipitation by full-length ARHGAP4 [1]: 55%
- percent of the co-precipitation by full-length ARHGAP4 [2]: 65%

B2: SEPT2 (natural protein)
chain: MSKQQPTQFINPETPGYVGFANLPNQVHRKSVKKGFEFTLMVVGESGLGKSTLINSLFLTDLYPERVIPGAAEKIERTVQIEASTVEIEERGVKLRLTVVDTPGYGDAINCRDCFKTIISYIDEQFERYLHDESGLNRRHIIDNRVHCCFYFISPFGHGLKPLDVAFMKAIHNKVNIVPVIAKADTLTLKERERLKKRILDEIEEHNIKIYHLPDAESDEDEDFKEQTRLLKASIPFSVVGSNQLIEAKGKKVRGRLYPWGVVEVENPEHNDFLKLRTMLITHMQDLQEVTQDLHYENFRSERLKRGGRKVENEDMNKDQILLEKEAELRRMQEMIARMQAQMQMQMQGGDGDGGALGHHV
- percent of the co-precipitation by full-length ARHGAP4 [1]: 55%
- percent of the co-precipitation by full-length ARHGAP4 [2]: 65%
